Measured values reported in article PMC4186968, “Molecular Basis for Coordinating Transcription Termination with Noncoding RNA Degradation” (Molecular Cell, 2014).
Where a SMILES comes first, the peptide text is derived from it. Where no end group is shown, it is not given here.

B12: Nrd1p CID (residues 1-153) (domain or fragment)
chain: MQQDDDFQNFVATLESFKDLKSGISGSRIKKLTTYALDHIDIESKIISLIIDYSRLCPDSHKLGSLYIIDSIGRAYLDETRSNSNSSSNKPGTCAHAINTLGEVIQELLSDAIAKSNQDHKEKIRMLLDIWDRSGLFQKSYLNAIRSKCFAMD

Key:
Nrd1p CID = molecular target: T1, Nrd1p CID (Saccharomyces cerevisiae, UniProt P53617); test: Equilibrium binding of FAM-labelled peptides to Nrd1p CID by fluorescence anisotropy (FA); set-up: species or system S. cerevisiae
T1 construct: the CID (residues 1–153) of Nrd1p; His6 (C); made in house
T1 sequence (P53617 1-153): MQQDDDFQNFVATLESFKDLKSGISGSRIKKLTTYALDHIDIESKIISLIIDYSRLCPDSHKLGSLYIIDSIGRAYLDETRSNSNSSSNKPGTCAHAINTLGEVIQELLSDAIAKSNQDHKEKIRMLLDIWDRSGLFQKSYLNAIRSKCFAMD

[1] = molecular target: Nrd1p CID (residues 1-153) (UniProt P53617); test: fluorescence anisotropy (FA) equilibrium binding
[2] = molecular target: T2, Nrd1p CID (residues 1-153), P53617; test: fluorescence anisotropy (FA) equilibrium binding; conditions: chain shown with the change
T2 chain: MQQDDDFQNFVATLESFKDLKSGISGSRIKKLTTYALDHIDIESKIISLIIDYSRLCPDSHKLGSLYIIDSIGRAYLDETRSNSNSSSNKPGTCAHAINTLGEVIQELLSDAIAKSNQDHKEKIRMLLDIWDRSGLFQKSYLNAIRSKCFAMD

[3] = molecular target: B12; test: FP
[4] = molecular target: T3, Nrd1p CID (residues 1-153) (S. cerevisiae, UniProt P53617 1-153); test: NMR solution structure; reconstituted complex of 15N,13C-labeled Nrd1p CID and unlabeled NIM peptide; 50 mM sodium phosphate pH 8.0, 100 mM NaCl, 20°C; conditions: both partners purified
T3 construct: also called Nrd1 CID
T3 sequence (looked up): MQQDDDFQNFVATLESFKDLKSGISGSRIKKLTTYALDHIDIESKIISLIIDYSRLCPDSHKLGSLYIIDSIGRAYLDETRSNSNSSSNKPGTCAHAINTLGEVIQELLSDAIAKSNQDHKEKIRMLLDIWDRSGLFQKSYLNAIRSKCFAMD

[5] = molecular target: T4, FAM-labeled Trf4p NIM peptide; test: fluorescence anisotropy (FA) equilibrium binding; conditions: chain shown with the change
T4 chain: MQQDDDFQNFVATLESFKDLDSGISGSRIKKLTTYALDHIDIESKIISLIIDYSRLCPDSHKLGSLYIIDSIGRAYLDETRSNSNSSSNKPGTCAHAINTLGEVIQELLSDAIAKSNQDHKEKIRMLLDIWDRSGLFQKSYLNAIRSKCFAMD

[6] = molecular target: T5, FAM-labeled Trf4p NIM peptide; test: fluorescence anisotropy (FA) equilibrium binding; conditions: chain shown with the change
T5 chain: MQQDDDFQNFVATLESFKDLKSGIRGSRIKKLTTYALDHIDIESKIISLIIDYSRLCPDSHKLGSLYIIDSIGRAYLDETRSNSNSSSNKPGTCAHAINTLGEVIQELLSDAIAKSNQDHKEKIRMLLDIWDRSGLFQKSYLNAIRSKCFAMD

[7] = molecular target: T6, FAM-labeled Trf4p NIM peptide; test: fluorescence anisotropy (FA) equilibrium binding; conditions: chain shown with the change
T6 chain: DDDEDGYNPYTL

[8] = molecular target: FAM-labeled Trf4p NIM peptide (S. cerevisiae); test: fluorescence polarisation; fluorescence anisotropy; fluorescently labeled peptide titrated with Nrd1p CID; equilibrium binding in solution
NIM N580A = molecular target: T7, NIM N580A (Saccharomyces cerevisiae, not fully specified (N-terminus); also: FAM label (position not given here)); test: FP
T7 chain: DDDEDGYAPYTL

NIM D577R = molecular target: T8, NIM D577R (Saccharomyces cerevisiae, not fully specified (N-terminus); also: FAM label (position not given here)); test: FP
T8 chain: DDDERGYNPYTL

[9] = molecular target: FAM-labeled Ser5P CTD peptide (S. cerevisiae); test: fluorescence polarisation; fluorescence anisotropy competition; preformed complex of 10 nM FAM-labeled Ser5P CTD and Nrd1p CID (120 μM) titrated with unlabeled Trf4p NIM peptide; KD calculated using 1.08 μM for CID-NIM
[10] = molecular target: FAM-labeled Ser5P CTD peptide (S. cerevisiae); test: fluorescence polarisation; fluorescence anisotropy; fluorescently labeled peptide titrated with Nrd1p CID; equilibrium binding in solution

Molecule `CC(C)C[C@H](NC(=O)[C@@H](NC(=O)[C@H](Cc1ccc(O)cc1)NC(=O)[C@@H]1CCCN1C(=O)[C@H](C)NC(=O)[C@H](Cc1ccc(O)cc1)NC(=O)CNC(=O)[C@H](CC(=O)O)NC(=O)[C@H](CCC(=O)O)NC(=O)[C@H](CC(=O)O)NC(=O)[C@H](CC(=O)O)NC(=O)[C@H](CC(=O)O)NC(=O)c1ccc2c(c1)C(=O)OC21c2ccc(O)cc2Oc2cc(O)ccc21)[C@@H](C)O)C(=O)O` [N580A] (HELM PEPTIDE1{[O=C1OC2(c3ccc(O)cc3Oc3cc(O)ccc32)c2ccc(C(=O)[*:2])cc21].D.D.D.E.D.G.Y.A.P.Y.T.L}$$$$V2.0) has a Kd (Nrd1p CID) of 4.3 ± 0.1 µM.

FAM-labeled Trf4p NIM peptide Y579A gave a Kd [1] of 283 µM.

Molecule `CC(C)C[C@H](NC(=O)[C@@H](NC(=O)[C@H](Cc1ccc(O)cc1)NC(=O)[C@@H]1CCCN1C(=O)[C@H](CC(N)=O)NC(=O)[C@H](Cc1ccc(O)cc1)NC(=O)CNC(=O)[C@H](CC(=O)O)NC(=O)[C@H](CCC(=O)O)NC(=O)[C@H](CCCNC(=N)N)NC(=O)[C@H](CC(=O)O)NC(=O)[C@H](CC(=O)O)NC(=O)c1ccc2c(c1)C(=O)OC21c2ccc(O)cc2Oc2cc(O)ccc21)[C@@H](C)O)C(=O)O` [D575R] (HELM PEPTIDE1{[O=C1OC2(c3ccc(O)cc3Oc3cc(O)ccc32)c2ccc(C(=O)[*:2])cc21].D.D.R.E.D.G.Y.N.P.Y.T.L}$$$$V2.0) has a Kd (Nrd1p CID) of 7.7 ± 0.2 µM.

`CC(C)C[C@H](NC(=O)[C@@H](NC(=O)[C@H](Cc1ccc(O)cc1)NC(=O)[C@@H]1CCCN1C(=O)[C@H](CC(N)=O)NC(=O)[C@H](Cc1ccc(O)cc1)NC(=O)CNC(=O)[C@H](CC(=O)O)NC(=O)[C@H](CCC(=O)O)NC(=O)[C@H](CC(=O)O)NC(=O)[C@H](CC(=O)O)NC(=O)[C@H](CC(=O)O)NC(=O)c1ccc2c(c1)C(=O)OC21c2ccc(O)cc2Oc2cc(O)ccc21)[C@@H](C)O)C(=O)O` [Trf4p NIM] (HELM PEPTIDE1{[O=C1OC2(c3ccc(O)cc3Oc3cc(O)ccc32)c2ccc(C(=O)[*:2])cc21].D.D.D.E.D.G.Y.N.P.Y.T.L}$$$$V2.0; C-terminus assumed) gave a Kd (Nrd1p CID) of 1.09 ± 0.01 µM.

`CC(C)C[C@H](NC(=O)[C@@H](NC(=O)[C@H](Cc1ccc(O)cc1)NC(=O)[C@@H]1CCCN1C(=O)[C@H](CC(N)=O)NC(=O)[C@H](Cc1ccc(O)cc1)NC(=O)CNC(=O)[C@H](CCCNC(=N)N)NC(=O)[C@H](CCC(=O)O)NC(=O)[C@H](CC(=O)O)NC(=O)[C@H](CC(=O)O)NC(=O)[C@H](CC(=O)O)NC(=O)c1ccc2c(c1)C(=O)OC21c2ccc(O)cc2Oc2cc(O)ccc21)[C@@H](C)O)C(=O)O` [D577R] (HELM PEPTIDE1{[O=C1OC2(c3ccc(O)cc3Oc3cc(O)ccc32)c2ccc(C(=O)[*:2])cc21].D.D.D.E.R.G.Y.N.P.Y.T.L}$$$$V2.0) was tested, and the Kd (Nrd1p CID) was 24.2 ± 0.6 µM.

B1: FAM-labeled Trf4p NIM peptide E576R (peptide)
chain: DDDRDGYNPYTL
B1 showed a Kd [2] of 4.8 µM.

B2: Trf4p NIM peptide with Glu576 changed to arginine (peptide)
chain: DDDRDGYNPYTL
B2 showed a Kd [3] of 4.6 µM.

B3: Trf4p NIM peptide with alanine at Tyr579 (peptide)
chain: DDDEDGANPYTL
modifications: not fully specified (N-terminus); also: FAM label (position not given here)
With B3 the Kd [3] was 263 µM.

B4: 12 aa NIM peptide of Trf4p (peptide)
peptide: DDDEDGYNPYTL
notes: printed in three-letter code; also called Trf4p NIM; unlabeled NIM
B4: binds [4].

B5: Nrd1p CID (residues 1-153), P53617 K21D (peptide)
chain: DDDEDGYNPYTL
With B5 the Kd [5] was 35.4 µM.

B6: Nrd1p CID (residues 1-153), P53617 S25R (peptide)
chain: DDDEDGYNPYTL
Work on B6 yielded a Kd [6] of 146 µM.

B7: Nrd1p CID (residues 1-153), P53617 L20D (protein)
chain: MQQDDDFQNFVATLESFKDDKSGISGSRIKKLTTYALDHIDIESKIISLIIDYSRLCPDSHKLGSLYIIDSIGRAYLDETRSNSNSSSNKPGTCAHAINTLGEVIQELLSDAIAKSNQDHKEKIRMLLDIWDRSGLFQKSYLNAIRSKCFAMD
Work on B7 yielded a Kd [7] of 44.9 µM.

B8: Nrd1p CID (residues 1-153), P53617 R28D (protein)
chain: MQQDDDFQNFVATLESFKDLKSGISGSDIKKLTTYALDHIDIESKIISLIIDYSRLCPDSHKLGSLYIIDSIGRAYLDETRSNSNSSSNKPGTCAHAINTLGEVIQELLSDAIAKSNQDHKEKIRMLLDIWDRSGLFQKSYLNAIRSKCFAMD
With B8 the Kd [7] was 96.9 µM.

B9: Nrd1p CID (residues 1-153), P53617 D70A (protein)
chain: MQQDDDFQNFVATLESFKDLKSGISGSRIKKLTTYALDHIDIESKIISLIIDYSRLCPDSHKLGSLYIIASIGRAYLDETRSNSNSSSNKPGTCAHAINTLGEVIQELLSDAIAKSNQDHKEKIRMLLDIWDRSGLFQKSYLNAIRSKCFAMD
Work on B9 yielded a Kd [7] of 39.8 µM.

B10: Nrd1p CID Ile130Lys (domain or fragment)
chain: MQQDDDFQNFVATLESFKDLKSGISGSRIKKLTTYALDHIDIESKIISLIIDYSRLCPDSHKLGSLYIIDSIGRAYLDETRSNSNSSSNKPGTCAHAINTLGEVIQELLSDAIAKSNQDHKEKIRMLLDKWDRSGLFQKSYLNAIRSKCFAMD
Work on B10 yielded a fold decrease in binding affinity against wild-type Nrd1p CID [8] of 20 fold.

B11: Nrd1p CID (residues 1-153), P53617 I130K (protein)
chain: MQQDDDFQNFVATLESFKDLKSGISGSRIKKLTTYALDHIDIESKIISLIIDYSRLCPDSHKLGSLYIIDSIGRAYLDETRSNSNSSSNKPGTCAHAINTLGEVIQELLSDAIAKSNQDHKEKIRMLLDKWDRSGLFQKSYLNAIRSKCFAMD
Work on B11 yielded a Kd [7] of 20.7 µM.

B12 showed a Kd (NIM N580A) of 4.3 µM, a Kd (NIM D577R) of 24.2 µM and a Kd [9] of 120 µM. It also gave a Kd [8] of 1.08 µM and a Kd [10] of 130 µM.

B13: FAM-labeled Trf4p NIM peptide E576A (peptide)
chain: DDDADGYNPYTL
For B13, the Kd [2] was 3.2 µM.
